The source of these data is publication PMC5700813, “A recombinant BBSome core complex and how it interacts with ciliary cargo” (eLife, 2017).

A short description of this series: Solubility of purified core BBSome. It counts as physicochemical. The settings on record: purified 6mer core BBSome. On the procedure:
The 6mer core BBSome could readily be purified in milligram quantities, and is soluble up to concentrations higher than 150 µM (>50 mg/ml). A single Strep affinity purification yielded almost pure complex with no obvious imbalance in the stoichiometry of components. The complex eluted as a single entity in all subsequent purification steps (Figure 1—figure supplement 3E), and was even resistant to high salt washes of up to 2.5 M NaCl, consistent with a previous study where the native BBSome was eluted with high salt concentrations from an Arl6 affinity column ([Jin et al., 2010]). The complex elutes in gel filtration with an apparent molecular weight of ~400 kDa, in acceptable agreement with the expected theoretical mass of 336.4 kDa (Figure 1—figure supplement 3C,D), but less consistent with it being a dimer.

Values joined by “and” are separate entries in the source; they are usually repeats but may differ in a detail not shown here. Equal values may be shown once.

Turning to “6mer core BBSome: recombinant human subcomplex composed of BBS1, 4, 5, 8, 9 and 18”, the “soluble up to concentration” value is “higher than 150 µM and > 50 mg/ml”.
